Target: human KLB/FGFR1c receptor complex on cells (human, UniProt Q86Z14 53-1044; P11362 22-822)
Experiment: cell-based or functional assay

Row | Binder | EC50 (nM), luciferase-based reporter assay [nM]
1 | bispecific anti-KLB antibody 23B3/28B7 (IgG format) (bispecific antibody, V domains shown) VH 1: EVQLQESGPGLVKPSQSLSLTCSVTGYSITSGYYWNWIRQFPGNKLEWMGYIRYDGNSNYNPFLKNRVSITRDTSKNQFFLKLNSVTTEDTATYYCTRKGAYYSSFDALDYWGQGTSVTVSS VL 1: DIVMTQSPSSMYASLGERVTISCKASQDIRSYLSWFQQKPGKSPKTLIYRANRLVDGVPSRFSGSGSGQDYSLTITSLEFGDVGLYYCLQYDEFPLTFGAGTKLKIE VH 2: EVQLQQSGPELVQPGTSVKISCEASGYTFTDYYINWVKQSRGKSLEWIGDINPNNGDTTYNQKFKAKATLTVDRSSNTAYMELRSLTSEDSVVYYCARRFYSSPFDSWGQGTTLTVSS VL 2: DIVMTQSPSSLAVSVGEKVTLSCKSGQSLLYSRNQKNYLAWYQQKPGQSPKLLISWASTRESGVPDRFTGSGSGTDFTLTISSVKTEDLAVYHCQQYYSYPYTFGGGTRLEIK | 0.63
2 | bispecific anti-KLB antibody 12B8/2C12 (IgG format) (bispecific antibody, V domains shown) VH 1: QIQLVQSGPELKKPGETAKISCKASGYAFSNYGMNWVKQAPGKDLKWMGWIDTDTGEATYTDDFKGRFVFSLETSASTAYLQINNLKNEDMATYFCAREEYGLFGFPYWGHGTLVTVSA VL 1: DIQMTQSSSSFSVSLGDRVTITCKASEDIYNRLAWYQQKPGSAPRLLISAATSLETGVPSRFSGSGSGKDYTLSITSLQTEDVATYYCQQYWSNPLTFGAGTKLELK VH 2: EVQLQQSGPGLVKPSQSLSLTCSVTGYSITSGYYWTWIRQFPGNKLEWMGYIKYDGGNYYNPSLRNRISITRDTSKNHFFLKFYSVTAEDTATYFCARGDYYASPYGAMDSWGQGTSVTVSS VL 2: DIVMTQSPSSLSASLGDTITITCHASQDIDVWLSWYQQKPGNVPQLLISKSSILHTGVPSRFSGGGSGTGFTLTISSLQPEDIATYYCQQGLSYPFTFGSGTKLKIK | 1.36
3 | bispecific anti-KLB antibody 12B8/23B3 (IgG format) (bispecific antibody, V domains shown) VH 1: QIQLVQSGPELKKPGETAKISCKASGYAFSNYGMNWVKQAPGKDLKWMGWIDTDTGEATYTDDFKGRFVFSLETSASTAYLQINNLKNEDMATYFCAREEYGLFGFPYWGHGTLVTVSA VL 1: DIQMTQSSSSFSVSLGDRVTITCKASEDIYNRLAWYQQKPGSAPRLLISAATSLETGVPSRFSGSGSGKDYTLSITSLQTEDVATYYCQQYWSNPLTFGAGTKLELK VH 2: EVQLQESGPGLVKPSQSLSLTCSVTGYSITSGYYWNWIRQFPGNKLEWMGYIRYDGNSNYNPFLKNRVSITRDTSKNQFFLKLNSVTTEDTATYYCTRKGAYYSSFDALDYWGQGTSVTVSS VL 2: DIVMTQSPSSMYASLGERVTISCKASQDIRSYLSWFQQKPGKSPKTLIYRANRLVDGVPSRFSGSGSGQDYSLTITSLEFGDVGLYYCLQYDEFPLTFGAGTKLKIE | 0.95
4 | bispecific anti-KLB antibody 2C12/28B7 (IgG format) (bispecific antibody, V domains shown) VH 1: EVQLQQSGPGLVKPSQSLSLTCSVTGYSITSGYYWTWIRQFPGNKLEWMGYIKYDGGNYYNPSLRNRISITRDTSKNHFFLKFYSVTAEDTATYFCARGDYYASPYGAMDSWGQGTSVTVSS VL 1: DIVMTQSPSSLSASLGDTITITCHASQDIDVWLSWYQQKPGNVPQLLISKSSILHTGVPSRFSGGGSGTGFTLTISSLQPEDIATYYCQQGLSYPFTFGSGTKLKIK VH 2: EVQLQQSGPELVQPGTSVKISCEASGYTFTDYYINWVKQSRGKSLEWIGDINPNNGDTTYNQKFKAKATLTVDRSSNTAYMELRSLTSEDSVVYYCARRFYSSPFDSWGQGTTLTVSS VL 2: DIVMTQSPSSLAVSVGEKVTLSCKSGQSLLYSRNQKNYLAWYQQKPGQSPKLLISWASTRESGVPDRFTGSGSGTDFTLTISSVKTEDLAVYHCQQYYSYPYTFGGGTRLEIK | 0.58

From patent publication US20190040142A1 (Genentech, published 2019)
